We go through two molecules from paper PMC3499301 (mAbs, 2012).

Data set [1] concerns the molecule itself.
The target in the next data set is soluble human Tie2-Fc (human, UniProt Q02763). Briefly: ELISA.
Sequence of soluble human Tie2-Fc (Q02763 23-748): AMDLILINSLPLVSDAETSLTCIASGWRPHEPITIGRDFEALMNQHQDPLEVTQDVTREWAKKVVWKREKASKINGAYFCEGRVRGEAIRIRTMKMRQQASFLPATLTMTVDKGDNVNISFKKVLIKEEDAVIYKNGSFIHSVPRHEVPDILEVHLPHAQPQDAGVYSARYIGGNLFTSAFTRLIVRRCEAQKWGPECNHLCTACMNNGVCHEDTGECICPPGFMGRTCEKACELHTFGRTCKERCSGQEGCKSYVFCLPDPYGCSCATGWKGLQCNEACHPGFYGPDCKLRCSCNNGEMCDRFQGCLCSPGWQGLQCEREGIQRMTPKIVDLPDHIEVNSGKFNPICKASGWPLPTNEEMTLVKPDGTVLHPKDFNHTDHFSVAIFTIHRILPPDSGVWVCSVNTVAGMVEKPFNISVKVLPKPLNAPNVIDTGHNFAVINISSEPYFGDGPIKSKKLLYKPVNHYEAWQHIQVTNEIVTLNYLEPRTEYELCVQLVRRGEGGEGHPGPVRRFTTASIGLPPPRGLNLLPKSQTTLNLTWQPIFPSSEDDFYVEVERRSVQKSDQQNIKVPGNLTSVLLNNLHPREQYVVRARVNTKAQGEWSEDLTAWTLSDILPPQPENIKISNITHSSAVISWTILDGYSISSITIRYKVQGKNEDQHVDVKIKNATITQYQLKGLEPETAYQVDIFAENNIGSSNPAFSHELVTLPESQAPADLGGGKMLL

B1: His-tagged Ang2 prepared in-house (Zyngenia) (ligand)
chain: YNNFRKSMDSIGKKQYQVQHGSCSYTFLLPEMDNCRSSSSPYVSNAVQRDAPLEYDDSVQRLQVLENIMENNTQWLMKLENYIQDNMKKEMVEIQQNAVQNQTAVMIEIGTNLLNQTAEQTRKLTDVEAQVLNQTTRLELQLLEHSLSTNKLEKQILDQTSEINKLQDKNSFLEKKVLAMEDKHIIQLQSIKEEKDQLQVLVSKQNSIIEELEKKIVTATVNNSVLQKQQHDLMETVNNLLTMMSTSNSAKDPTVAKEEQISFRDCAEVFKSGHTTNGIYTLTFPNSTEEIKAYCDMEAGGGGWTIIQRREDGSVDFQRTWKEYKVGFGNPSGEYWLGNEFVSQLTNQQRYVLKIHLKDWEGNEAYSLYEHFYLSSEELNYRIHLKGLTGTAGKISSISQPGNDFSTKDGDNDKCICKCSQMLTGGWWFDACGPSNLNGMYYPQRQNTNKFNGIKWYYWKGSGYSLKATTMMIRPADF
As for B1, the “stoichiometry N” value in data set [1] came to 2.

B2: Recombinant human Ang2 (R&D Systems) (ligand)
chain: B1 chain
Regarding B2, the binding result in the data set with soluble human Tie2-Fc is “binds”.
